± gives the uncertainty stated by the source.

The data set in a line: protein stability index of a GFP-peptide fusion (yeast GPS) (PSI 1-4); higher = more stable; sorted into four equal gates, so the index is relative within each strain. In outline:
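Mid-log yeast cultures in leucine-free medium, carrying a pooled plasmid library, were sorted into four equal gates by their GFP/Cherry fluorescence ratio. Each plasmid expressed Cherry along with GFP fused upstream of a tiled 17-residue yeast protein peptide. Plasmids recovered from each gate were PCR-amplified and Illumina-sequenced, with reads assigned to strains by barcodes. The protein stability index was obtained by summing each gate's read frequency weighted by its gate number.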

Take EDKQNIEINEDNSQDDQ [RRI2]: the protein stability index by setting is: (doa10∆) 3.44 ± 0.073; (pdr5∆) 3.25 ± 0.066; (san1∆) 3.23 ± 0.039; (ubr1∆) 3.23 ± 0.04.
DKILQLNDRFQTLSSHL [PGD1]: the protein stability index is 2.46 ± 0.048 (doa10∆), 2.66 ± 0.042 (pdr5∆), 2.55 ± 0.051 (san1∆) and 2.46 ± 0.058 (ubr1∆).
For VVESVGAEVDEARINEL [RPP2B] the same measures were 3.23 ± 0.11, 3.21 ± 0.091, 3.35 ± 0.095 and 3.47 ± 0.15.
For ELNDLKWGRNQPVNINL [YMR129W/POM152] the same measures were 2.8 ± 0.1, 2.72 ± 0.086, 2.83 ± 0.11 and 2.56 ± 0.068.
For KPTDATGNTTSKSAFSF [YOR098C/NUP1], in that order: 2.04 ± 0.12, 2.57 ± 0.088, 2.1 ± 0.12 and 2.46 ± 0.11.
As to MSVDIDKKASMIISGSR [ASC1], the protein stability index reads like this: (doa10∆) 2 ± 0.24; (pdr5∆) 1.95 ± 0.12; (san1∆) 1.71 ± 0.23; (ubr1∆) 1.99 ± 0.074.
SYAVSPYAQKPLQGIFH [QCR8]: the protein stability index amounted to 2.51 ± 0.082 (doa10∆), 2.4 ± 0.061 (pdr5∆), 2.54 ± 0.054 (san1∆) and 2.6 ± 0.052 (ubr1∆).
As for LSALNSEISSLKGKINN [SMC1], the protein stability index is, setting by setting: (doa10∆) 3.03 ± 0.09; (pdr5∆) 3 ± 0.092; (san1∆) 3.08 ± 0.064; (ubr1∆) 3.06 ± 0.075.
For LCDNFNHFSLSYKDSGL [COR1], in that order: 2.27 ± 0.066, 2.7 ± 0.069, 2.73 ± 0.067 and 2.5 ± 0.066.
Turning to KTRNPLTHSTPKNFGIG [RPL8A], the protein stability index (doa10∆) came to 3.02 ± 0.084, the protein stability index (pdr5∆) turned out to be 2.9 ± 0.058, the protein stability index (san1∆) came out at 2.95 ± 0.046 and the protein stability index (ubr1∆) came out at 3.07 ± 0.054.
On to TYPAGFMDVITLDATNE [RPS4A], for which the protein stability index runs as follows: (doa10∆) 2.71 ± 0.085; (pdr5∆) 3.11 ± 0.086; (san1∆) 3.11 ± 0.062; (ubr1∆) 2.95 ± 0.063.
On to FDKKSFFNGKALNNAIP [PRP8], for which the protein stability index turned out to be 2.06 ± 0.08 (doa10∆), 1.91 ± 0.051 (pdr5∆), 1.98 ± 0.15 (san1∆) and 1.92 ± 0.052 (ubr1∆).
For the sequence GQKLLAIKYGYEDSGST [SRB4], the protein stability index is, setting by setting: (doa10∆) 2.83 ± 0.11; (pdr5∆) 2.91 ± 0.098; (san1∆) 2.53 ± 0.1; (ubr1∆) 3.25 ± 0.11.
Take KIESSVESQFSAGRLYA [RPS8A]: the protein stability index by setting is: (doa10∆) 2.81 ± 0.11; (pdr5∆) 2.85 ± 0.087; (san1∆) 1.96 ± 0.15; (ubr1∆) 2.77 ± 0.13.
As for GKKRFRVVTVDGKLIDI [SMC4], the protein stability index is, setting by setting: (pdr5∆) 3.49 ± 0.14; (san1∆) 3.31 ± 0.076; (ubr1∆) 3.55 ± 0.18.
With YLKKREAGEVKDDGAFV [RPL10], the protein stability index stood at 3.16 ± 0.11 (doa10∆), 2.8 ± 0.2 (pdr5∆), 3.37 ± 0.044 (san1∆) and 3.27 ± 0.1 (ubr1∆).
For RITDASLFQLSKLGKNL [GRR1] the same measures were 2.38 ± 0.045, 2.55 ± 0.05, 2.12 ± 0.061 and 2.51 ± 0.036.
For VDNVWADVYAKALEGKD [RPP1B] the same measures were 3.14 ± 0.1, 3.1 ± 0.16, 3.35 ± 0.12 and 3.06 ± 0.11.
For TSKWLNSITSGGLKSCD [YDL116W/NUP84], in that order: 2.94 ± 0.097, 3.17 ± 0.089, 3.42 ± 0.078 and 2.7 ± 0.052.
On to LDTRKELWRKEQKLQTV [SMC3], for which the protein stability index runs as follows: (doa10∆) 1.79 ± 0.069; (pdr5∆) 2.58 ± 0.081; (san1∆) 2.83 ± 0.16; (ubr1∆) 2.99 ± 0.058.
KLVRESELLGGTFKSTL [QCR2] registered a protein stability index (doa10∆) of 2.53 ± 0.12, a protein stability index (pdr5∆) of 2.82 ± 0.1, a protein stability index (san1∆) of 2.35 ± 0.093 and a protein stability index (ubr1∆) of 3.18 ± 0.063.
For WNRADNHFKDTYGFSIL [FAS1], in that order: 3.07 ± 0.12, 2.57 ± 0.069, 3.35 ± 0.083 and 3.27 ± 0.092.
For STIPTRENGKGGQIAHI [ROX3] the same measures were 3.01 ± 0.11, 3.17 ± 0.092, 2.98 ± 0.052 and 2.97 ± 0.19.
As for IREIDVTGGKKALVLFV [RPS7B], the protein stability index stood at 1.3 ± 0.085 (doa10∆), 1.5 ± 0.1 (pdr5∆), 1.3 ± 0.21 (san1∆) and 1.23 ± 0.063 (ubr1∆).
As to QAKLKKNVETLEEKILA [SMC4], the protein stability index is, setting by setting: (doa10∆) 3.09 ± 0.08; (pdr5∆) 2.98 ± 0.077; (san1∆) 3.13 ± 0.077; (ubr1∆) 3.13 ± 0.066.
For REEAIGFIRGSNKFAEV [SMC3], in that order: 3.01 ± 0.093, 2.94 ± 0.074, 2.95 ± 0.094 and 2.67 ± 0.08.
